The supplement of paper PMC10126150
± gives the standard deviation of the averaged measurements.

These sequences were tested on ATP (assay: switch fluorescence ratio, 500 uM ATP over buffer (Cy3 cluster intensity, sum of 5 cycles each) (fold (ratio)); higher = stronger signal-on switching upon ATP binding; sequences stand for … in TCGTCGGCAGCGTCAGATGTGTATAAGAGACAGTTTTTTTTTTTTTTTTTTTTTTTTT…TC). Settings: aptamer strand: ATP DNA aptamer (quencher-CACCTGGGGGAGTATTGCGGAGGAAGG + anchor), 100 nM annealed; ATP concentration: 500 uM.
Method in brief: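 Exposure to 500 uM ATP lasted 15 min at 22 °C before imaging, and a selection-buffer image was taken beforehand, for Cy3-labelled switching-strand clusters on a modified Illumina MiSeq flow-cell annealed to 100 nM quencher-labelled ATP aptamer. Five buffer/ATP cycles were run with NaOH stripping and re-annealing between them. The fluorescence ratio per cluster is summed target-cycle over summed buffer-cycle Cy3 intensity, averaged per switch-domain sequence. Clusters outside 100-1000 RFU were excluded.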

| Sequence | switch fluorescence ratio |
| --- | --- |
| CCGCAGGGTT | 1.51 ± 0.58 |
| CCGCCTTGTT | 1.11 ± 0.044 |
| CCGCGGGTTC | 1.55 ± 0.45 |
| CCGGAAGGGG | 1.06 ± 0.02 |
| CCGGACCACG | 1.01 ± 0.029 |
| CCGGACCCAA | 1.75 ± 0.23 |
| CCGGACGCGT | 1.52 ± 0.26 |
| CCGGAGAGGT | 2.28 ± 0.23 |
| CCGGAGATTT | 1.57 ± 0.028 |
| CCGGAGGGGG | 1.05 ± 0.02 |
| CCGGATCGCG | 1.043 ± 0.0047 |
| CCGGATGGAG | 1.02 ± 0.036 |
| CCGGCGGGG | 1.04 ± 0.027 |
| CCGGCTGGTG | 1.197 ± 0.0056 |
| CCGGGAAATT | 1.22 ± 0.36 |
| CCGGGAAGGC | 2.043 ± 0.0097 |
| CCGGGAGTTG | 1.01 ± 0.024 |
| CCGGGATGGG | 1.03 ± 0.022 |
| CCGGGCGGTG | 1.04 ± 0.021 |
| CCGGGCTGGA | 1.08 ± 0.074 |
| CCGGGGCACT | 1.34 ± 0.26 |
| CCGGGGCCTA | 1.05 ± 0.026 |
| CCGGGGGGTG | 1.07 ± 0.066 |
| CCGGGGTAAG | 1.03 ± 0.029 |
| CCGGGTAGTA | 1.12 ± 0.11 |

| Sequence | switch fluorescence ratio |
| --- | --- |
| CCGGGTGGG | 1.01 ± 0.062 |
| CCGGGTGTTT | 1.63 ± 0.75 |
| CCGGGTTGGG | 1.02 ± 0.036 |
| CCGGGTTTAC | 1.621 ± 0.013 |
| CCGGTGCGGC | 1.48 ± 0.23 |
| CCGGTGCTCG | 1.04 ± 0.047 |
| CCGGTTACAG | 1.07 ± 0.0078 |
| CCGGTTGAGA | 1 ± 0.016 |
| CCGGTTTTTG | 1.01 ± 0.05 |
| CCGTAACGGA | 0.972 ± 0.012 |
| CCGTAAGGAA | 1.06 ± 0.11 |
| CCGTAGCGTT | 6.12 ± 1.5 |
| CCGTAGGGCT | 1.05 ± 0.042 |
| CCGTATCCCT | 1.03 ± 0.043 |
| CCGTATTGGT | 1.03 ± 0.039 |
| CCGTCAGGCG | 1.039 ± 0.0067 |
| CCGTCCGGTT | 1.16 ± 0.018 |
| CCGTCTACTG | 1.04 ± 0.013 |
| CCGTGCACGG | 0.978 ± 0.021 |
| CCGTGCAGTA | 3.14 ± 1.2 |
| CCGTGGGGTA | 0.974 ± 0.031 |
| CCGTGTATGT | 1.045 ± 0.0062 |
| CCGTGTGACT | 1.08 ± 0.042 |
| CCGTGTTCTA | 1.03 ± 0.063 |
| CCGTGTTGCT | 1.12 ± 0.061 |

| Sequence | switch fluorescence ratio |
| --- | --- |
| CCGTTACATG | 1.05 ± 0.017 |
| CCGTTCTTAC | 2.84 ± 1.1 |
| CCGTTGAAGG | 1.01 ± 0.016 |
| CCGTTGAGGG | 1.01 ± 0.086 |
| CCGTTGCGTG | 1 ± 0.036 |
| CCGTTGCTTT | 1.35 ± 0.14 |
| CCGTTGGTGG | 0.983 ± 0.024 |
| CCGTTGTGAA | 1.043 ± 0.0012 |
| CCGTTTAAAA | 1.11 ± 0.15 |
| CCGTTTAGGG | 0.999 ± 0.016 |
| CCGTTTTTGG | 0.993 ± 0.016 |
| CCTAACCTCT | 1.01 ± 0.032 |
| CCTAATGAA | 1.2 ± 0.28 |
| CCTAATGTAA | 1.08 ± 0.027 |
| CCTACATGTG | 1.26 ± 0.11 |
| CCTACCGTGG | 1.31 ± 0.11 |
| CCTACGGGCC | 2.16 ± 0.12 |
| CCTAGATAAC | 1.16 ± 0.039 |
| CCTAGGGCGG | 1.006 ± 0.0011 |
| CCTAGGGGAG | 1.04 ± 0.04 |
| CCTAGGGGGA | 1.05 ± 0.021 |
| CCTAGGGTGG | 1.03 ± 0.069 |
| CCTAGGGTTA | 1.01 ± 0.074 |
| CCTAGGTTTC | 0.981 ± 0.035 |
| CCTATAGTAC | 1.69 ± 0.05 |

| Sequence | switch fluorescence ratio |
| --- | --- |
| CCTATCGAAT | 1.97 ± 1.1 |
| CCTATCGTTG | 1.08 ± 0.0056 |
| CCTATTAAAC | 1.04 ± 0.036 |
| CCTCACAGTT | 1.24 ± 0.096 |
| CCTCAGACAG | 1.58 ± 0.052 |
| CCTCAGCAGA | 3.75 ± 0.53 |
| CCTCATGCCA | 2.3 ± 0.11 |
| CCTCGAGACT | 1.43 ± 0.032 |
| CCTCGGCGGT | 2.47 ± 1.7 |
| CCTCGGTTGG | 1.011 ± 0.0035 |
| CCTCGTTAGC | 2.63 ± 0.13 |
| CCTCTATGAT | 1.42 ± 0.044 |
| CCTCTGGGAT | 2.24 ± 1.7 |
| CCTGAAGGCA | 1 ± 0.011 |
| CCTGAGGGTT | 0.985 ± 0.0069 |
| CCTGATAATT | 1.02 ± 0.02 |
| CCTGATAGCG | 1.05 ± 0.03 |
| CCTGGATTGC | 1.24 ± 0.093 |
| CCTGGCTTTT | 1.047 ± 0.007 |
| CCTGGGCAAG | 3.81 ± 0.36 |
| CCTGGGCCTT | 1.01 ± 0.025 |
| CCTGGGGAAT | 1.91 ± 1.1 |
| CCTGGGGCTG | 1.12 ± 0.14 |
| CCTGGGGGGT | 1.06 ± 0.13 |
| CCTGGGTAGC | 1.1 ± 0.045 |
